In patent US20190077883A1:

Columns and labels:
[1] = biological target: Monomeric His-tagged human FcRn (human) (UniProt P55899); experiment: SPR Biacore 3000, IgG immobilised, monomeric hFcRn injected, pH 6.0, 1:1 Langmuir
[2] = biological target: recombinant human FcRn (SPR of Example 2) (human) (UniProt P55899); experiment: SPR Biacore T200, pH 6.0, KD against IgG1-WT
[3] = biological target: Monomeric His-tagged human FcRn (human) (UniProt P55899); experiment: SPR Biacore 3000, pH 6.0, KD against IgG1 WT
[4] = biological target: recombinant human FcRn (SPR of Example 2) (human) (UniProt P55899); experiment: SPR Biacore T200, IgG immobilised, hFcRn 1000.0-15.6 nM injected, pH 6.0, 25 C, 1:1 Langmuir
[5] = biological target: GST-tagged human FcRn (human; Schistosoma japonicum) (UniProt P55899); experiment: ELISA pH 6.0, h9C12 variant captured on AdV5 hexon, GST-hFcRn detected with anti-GST-HRP
[6] = biological target: Monomeric His-tagged human FcRn (human) (UniProt P55899); experiment: SPR Biacore 3000, IgG immobilised, monomeric hFcRn injected, pH 7.4

Chain of Monomeric His-tagged human FcRn (human) (P55899 24-290 limits assumed, form in doubt): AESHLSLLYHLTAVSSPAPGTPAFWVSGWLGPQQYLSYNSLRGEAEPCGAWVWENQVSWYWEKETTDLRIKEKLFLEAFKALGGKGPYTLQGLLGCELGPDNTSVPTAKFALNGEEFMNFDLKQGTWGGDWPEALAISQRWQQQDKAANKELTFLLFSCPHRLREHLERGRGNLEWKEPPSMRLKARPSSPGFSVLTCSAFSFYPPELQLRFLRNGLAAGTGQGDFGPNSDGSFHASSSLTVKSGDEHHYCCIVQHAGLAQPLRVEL
Chain of recombinant human FcRn (SPR of Example 2) (human) (P55899 24-290 limits assumed, form in doubt): as above

| Substance | Kd [1] [µM] | koff [1] [s⁻¹] | Fold change from WT [3] [fold] | Fold change from WT (ELISA) pH 6.0 [5] [fold] | other results |
| --- | --- | --- | --- | --- | --- |
| h9C12 IgG1-L309S/Q311R/N434W/M428E (antibody) |  |  |  | 6 |  |
| h9C12 IgG1-Q311R/N434W/M428E/H433K (antibody) |  |  |  | 9 |  |
| h9C12 IgG1-L309K/Q311R/N434W/M428E (antibody) |  |  |  | 6 |  |
| h9C12 IgG1-Q311R/N434P/M428E (antibody) |  |  |  | 3 | Fold change from WT (KD) pH 6.0 [2]: 11.3 fold; Kd [4]: 0.0242 µM; koff [4]: 0.0405 s⁻¹ |
| h9C12 IgG1-Q311R (antibody) | 0.687 | 0.0572 | 1.1 |  |  |
| h9C12 IgG1-L309R/Q311R/N434W/M428E (antibody) |  |  |  | 6 |  |
| h9C12 IgG1-N434W (antibody) | 0.0148 | 0.0032 | 52.9 |  | Kd [6]: 1.98 µM |
| h9C12 IgG1-M252Y/S254T/T256E (antibody) | 0.093 | 0.0078 | 8.4 |  |  |

The next lines start with results.

| Kd [1] [µM] | koff [1] [s⁻¹] | Fold change from WT [3] [fold] | Fold change from WT (ELISA) pH 6.0 [5] [fold] | Substance | other results |
| --- | --- | --- | --- | --- | --- |
| 0.0385 | 0.005 | 20.3 | 6 | h9C12 IgG1-Q311R/N434W/M428E (antibody) | Fold change from WT (KD) pH 6.0 [2]: 29.3 fold; Kd [4]: 0.0093 µM; koff [4]: 0.0111 s⁻¹ |
| 0.0223 | 0.0036 | 35.1 |  | h9C12 IgG1-Q311R/N434W (antibody) |  |
|  |  |  | 6 | h9C12 IgG1-M252S/Q311R/N434W/M428E (antibody) |  |
|  |  |  | 3 | h9C12 IgG1-Q311R/N434W/M428D (antibody) | Fold change from WT (KD) pH 6.0 [2]: 9.28 fold; Kd [4]: 0.0294 µM; koff [4]: 0.0312 s⁻¹ |
